Earlier results as cited in US5010056A, “Pharmaceutical composition for intranasal administration, comprising GH-releasing hormone, a cholinergic agonist and optionally a bile salt” (priority 1987, dated 1991).
Like-named read-outs stand apart in the source and are kept apart here.

Experiments:
[1] = system: GH secretion; details: previous administration of an oral dose
[2] = orally administered

GH-releasing hormone [GHRH]
bioavailability (nasal administration): low | doses required nasally to obtain comparable effects, relative to parenteral doses (nasal versus parenteral administration): 300-1000 times the parenteral doses

CN(C)C(=O)Oc1ccc[n+](C)c1 [pyridostigmine]
effect on GH secretion and on the effect of intravenously injected GHRH [1]: able to stimulate GH secretion and significantly increase the effect of intravenously injected GHRH | bioavailability [2]: low
